Numbering of substitutions follows the chain as printed.
T1: Human OSCAR-ECD (recombinant extracellular domain of human OSCAR) (human, UniProt Q8IYS5 19-218)
T1 construct: also called OSACAR-ECD
T1 chain: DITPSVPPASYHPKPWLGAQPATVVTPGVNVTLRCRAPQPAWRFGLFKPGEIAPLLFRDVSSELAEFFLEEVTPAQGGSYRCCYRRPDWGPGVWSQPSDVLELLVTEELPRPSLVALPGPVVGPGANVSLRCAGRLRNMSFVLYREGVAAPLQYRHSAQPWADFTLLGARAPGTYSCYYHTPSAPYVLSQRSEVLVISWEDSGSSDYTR

T2: Human OSCAR (osteoclast-associated receptor), full length, on cells (human)
T2 construct: The signal peptide limits cannot be read from the text; also called hOSCAR; HEK-OSCAR cells
T2 chain: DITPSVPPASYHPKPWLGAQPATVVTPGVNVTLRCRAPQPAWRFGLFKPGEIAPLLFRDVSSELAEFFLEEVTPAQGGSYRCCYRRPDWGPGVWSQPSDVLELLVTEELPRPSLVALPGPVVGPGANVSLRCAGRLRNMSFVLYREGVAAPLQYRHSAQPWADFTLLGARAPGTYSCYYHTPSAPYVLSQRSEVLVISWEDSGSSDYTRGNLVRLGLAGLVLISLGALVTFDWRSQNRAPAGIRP

B1: 16F119 (antibody, V domains shown)
VH: QVQLVQSGAEVKKPGSSVKVSCKVSGGTFSNYAISWVRQAPGQGLEWMGRIIPILGIAAYAQRFRDRVTITADKFTSTVYMELSSLRSEDTAVYYCASGQLGTPYWYFDLWGRGTLVTVSS
VL: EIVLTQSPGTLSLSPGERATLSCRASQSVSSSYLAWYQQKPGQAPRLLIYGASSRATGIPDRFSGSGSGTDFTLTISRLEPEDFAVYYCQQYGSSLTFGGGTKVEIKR
notes: Fully human mAb from HuMab mice; also called 16F119 (Hu); 16F119A5
B2: 7F1A1 (antibody, V domains shown)
VH: QVQLQQSGAELVRPGTSVKVSCKASGYAFTNYMIEWVKKRPGQGLEWIGVINPGSGGTNYNEKFENKATLTADKSSSTAYMQLSSLTSDDSAVYFCARSLDFDGAWFAYWGQGTLVTVSA
VL: DIQMTQSPASLSVSVGETVTITCRASEKIYSNLAWYQQKQGKSPQLLVYAATNLADGVPSRFSGSGSGTQFSLKINSLQPEDFGSYYCQHFWGIPWTFGGGTKLEIKR
notes: Mouse anti-human OSCAR mAb; The heavy chain entry covers only VH-CH1 and the start of the hinge
B3: 7F21A1 (antibody, V domains shown)
VH: QVQLQQSGAELVRPGTSVKVSCRSSGYAFTNYLIEWIKQRPGQGLEWIGVITPGSGGTNYNENFKDKATLTADKSSNTAYMQLTSLTSDDSAVYFCARSFDYDGAWFAYWGQGTLVTVSA
VL: B2 VL with S77N, P80S, I94T
notes: as for B2
B4: 7F14A1 (antibody, V domains shown)
VH: QVQLKESGPGLVAPSQSLSITCSVSGFSLTSYGVHWVRQPPGKGLEWLGVMWAGGSTNYNSALMSRLSISKDNSKSQVFLKMNSLQTDDSAMYYCALQKGYGNYFDYWGQGTTLTVSS
VL: QIVLTQSPAIMSASPGEKVTMTCSASSSVNYMHWYQQKSGTSPKRWIYDTSNLASGVPTRFSGSGSGTSYSLTISSMEAEDAATYYCQQWSSDPLTFGAGTKLELKR
notes: Mouse anti-human OSCAR mAb; also called 7F14A4
B5: 7F10A1 (antibody, V domains shown)
VH: QVQLQQSGAELARPGASVKLSCKASGYTFTDNYINWVKQRTGQGLEWIGEIYPGSGNTYYNEKFKGKATLTADKSSSTAYMQLSSLTSEDSAVYFCARSANRYDRGDFDYWGQGTPLTVSS
VL: QILLTQSPAIMSASPGEKVTMTCSASSSVSYMHWYQQKPGSSPKPWIYDTSNLASGFPARFSGSGSGTSYSLIISSMEAEDAATYYCHQRSSYPYTFGGGTKLEIKR
notes: as for B2
B6: 7F6A1 (antibody, V domains shown)
VH: DVKLVESGGGLVKPGGSLKLSCAASGFTFSSYVMSWVRQTPEKRLEWVATISSGGSYTYYPDSVKGRFTISRDNAKNTLYLQMSSLKSEDTAMYYCTREGGNSPDYWGQGTTLTVSS
VL: ENVLTQSPAIMSASPGEKVTMTCSVSSSISYMHWYRQKSFTSPQLWIYDTSKLASGVPGRFSGSGSGISYSLTISSMEAEDVATYYCFQGSEYPLTFGAGTKLELKR
notes: as for B2
B7: 6F6B (antibody, V domains shown)
VH: EVQLQQSGAELVKPGASVKLSCTASGFNIKDTYVHWVKQRPDQGLEWIGRIDPAIGNTKYDPKFRGKATITADSSSNTAYLQLSSLTSEDTAVYYCARLSYGNYGLDYSMDYWGQGTSVTVSS
VL: DIVLTQSPATLSVTPGDSVSLSCRASQSITNNLHWYQQKSHESPRLLIKYASQSISGIPSRFRGSGSGTDFTLSINSVETEDFGVYFCQQSNTWPRTFGGGTKLEIKR
notes: Mouse anti-OSCAR mAb
B8: 6F3A (antibody, V domains shown)
VH: B7 VH
VL: B7 VL
notes: Mouse anti-OSCAR mAb
B9: 16F56 (antibody, V domains shown)
VH: QVQLVQSGAEVKKPGSSVKVSCKASGGTFSNYAISWVRQAPGQGLEWMGRIIPILGIAHNAQKFQDRVTITADKSTSTAYMELSSLRSEDTAVYYCASPSSGKGLPYWFFDLWGRGTLVTVSS
VL: DIQMTQSPSFLSASVGDRVTITCRASQSISSYLNWYQQKPGKAPKLLIYAASSLQSGVPSRFSGSGSGTDFTLTISSLQPEDFATYYCQCGYSTPLTFGGGTKVEIKR
notes: Fully human mAb from HuMab mice; also called 16F56 (Hu); 16F56A2

Molecular target: T1, Human OSCAR-ECD (recombinant …)
Assay: SPR competition, 50 nM OSCAR-ECD premixed with mAb, over immobilised collagen I
Method: (§1) The experiment was performed using a Biacore T 100 instrument (GE Healthcare). Human collagen 1 (Sigma, # C5483) and human collagen 2 (Millipore #CC052) were diluted with 10 mM NaOAc, pH 4.5 and immobilized on a Biacore CM3 sensor chip (GE Healthcare) using amine coupling chemistry (GE Healthcare). Immobilization was performed according to the standard procedure, but at 5° C. in order to prevent aggregation collagens, with immobilized levels of ca 250 RU on flow cells (FC) 2 and 4. A blank immobilization was performed on FC 1 & 3, which were used as reference cells. HBS-EP buffer (10 mM HEPES, 150 mM NaCl, 3 mM EDTA, 0.05% Polysorbat P20, pH7.4) was used as running buffer for the immobilization. Buffer containing HBS-EP/+0.1% BSA was used for the competition assay. The competition experiment was performed at 5° C. at a flow rate of 50 μl/min. […] OSCAR was mixed with various concentrations of anti-OSCAR antibodies ranging from 0-10 μg/ml prior to injection. Binding curves were measured for 360 s followed by 240 s of dissociation. The chip surface was regenerated for 2×20 s with 10 mM glycine, pH 2.0 between assays.
(§2) Human collagen I and II were immobilized to the surface of a Biacore sensor chip by amine coupling. […] It was hypothesized that an antibody inhibiting binding of OSCAR to collagen would lead to a concentration-dependent loss of signal, whereas a non-inhibiting antibody would enhance the signal due to the increased mass of the OSCAR-antibody complex.

Compared with B1, B2 is higher in “binding of OSCAR-ECD to collagen I with 10 µg/mL mAb” value: -3.4 for the first, 145 for the second.

First: B3
Second: B4
The “binding of OSCAR-ECD to collagen I with 10 µg/mL mAb” value of the first is higher: 144 for the first, 56.3 for the second.

First: B5
Second: B6
The “binding of OSCAR-ECD to collagen I with 10 µg/mL mAb” value of the first is higher: 55 for the first, 19.2 for the second.

Going from B7 to B8, the “binding of OSCAR-ECD to collagen I with 10 µg/mL mAb” value rises from 1.7 to 9.5.

B9 was tested, and the “binding of OSCAR-ECD to collagen I with 10 µg/mL mAb” value was -3.2.

Molecular target: T1, Human OSCAR-ECD (recombinant …)
Assay: SPR competition, 50 nM OSCAR-ECD premixed with mAb, over immobilised collagen II
Set-up: unit not given here
Method: as §1, §2

Compared with B1, B2 is higher in “binding of OSCAR-ECD to collagen II with 10 µg/mL mAb” value (shortened to “binding of OSCAR-ECD to collagen II”): -1.5 for the first, 335 for the second.

Compared with B3, B4 is lower in “binding of OSCAR-ECD to collagen II” value: 319 for the first, 83.6 for the second.

First: B5
Second: B6
The “binding of OSCAR-ECD to collagen II” value of the first is higher: 102 for the first, 19.3 for the second.

First: B7
Second: B8
The “binding of OSCAR-ECD to collagen II” value of the first is lower: 1 for the first, 13.8 for the second.

In the case of B9, the “binding of OSCAR-ECD to collagen II” value is reported as -1.9.

Molecular target: T2, Human OSCAR (osteoclast-associated …)
Assay: flow cytometry on primary human monocytes, donor #2
Method: (§3) Cell number and viability were determined using a Cedex cell counter. The cells were diluted in washing buffer (1×PBS (—Ca²⁺/—Mg²⁺)+5% FBS+0.1% Na-azide) to […]. In the case of monocytes, the cells were further blocked by adding 10 μl of a hFcR blocker (Miltenyi, #130-059-901) and incubated for 10 minutes at 4° C. 50 μl of cells (50.000 cells/well) were seeded into 96 well round-bottomed microtiter plates. Hybridoma supernatants or purified antibodies (in serial dilutions) were added to the cells at 50 μl/well. The isotype-matched purified irrelevant human mAb or mouse mAb served as negative controls (mouse IgG1, BD, #553452; mouse IgG2a, BD, #557353; mouse IgG2b, BD, #557352). […] Cells were washed in PBS, re-suspended in fixation buffer (1×PBS (—Ca²⁺/—Mg²⁺), pH7.2+1% formalin (B&B, #LAB96751.0500) and analysed by FACS flow cytometer. EC₅₀ values were calculated using a GraphPad Prism 5 software.

First: B2
Second: B3
The EC50 of the first is 12-fold higher: 120 pM for the first, 10 pM for the second.

First: B4
Second: B5
The EC50 of the first is 4.6-fold higher: 550 pM for the first, 120 pM for the second.

Work on B6 yielded an EC50 of 140 pM.

Molecular target: T2, Human OSCAR (osteoclast-associated …)
Assay: flow cytometry on primary human monocytes, donor #1
Method: as §3

First: B2
Second: B3
The EC50 of the first is 7.8-fold lower: 1210 pM for the first, 9480 pM for the second. The first is the more potent here.

First: B4
Second: B5
The EC50 of the first is 2.1-fold higher: 2470 pM for the first, 1200 pM for the second.

With B6 the EC50 was 3480 pM.

Molecular target: T2, Human OSCAR (osteoclast-associated …)
Assay: cell-based or functional assay

First: B1
Second: B2
The “IC50 (IL-8), ColI-induced IL-8 release from moDC, Donor 4” value (shortened to “IC50 … Donor 4”) of the first is 1.5-fold lower: 20 pM for the first, 30 pM for the second.

Compared with B3, B5 is 19-fold higher in “IC50 … Donor 4” value: 110 pM for the first, 2060 pM for the second.

B7 and B8 are within 1.5-fold of each other in “IC50 … Donor 4” value: 860 pM for the first, 690 pM for the second.

With B9 the “IC50 … Donor 4” value was 60 pM.

Compared with B1, B6 is 5.4-fold higher in “IC50 (IL-8), ColI-induced IL-8 release from moDC, Donor 5” value (from here on “IC50 … Donor 5”): 460 pM for the first, 2490 pM for the second.

B7 and B8 cannot be ordered by “IC50 … Donor 5” value: > 20000 pM for the first, > 20000 pM for the second.

With B9 the “IC50 … Donor 5” value was 100 pM.

B1 and B6 are within 1.5-fold of each other in “IC50 (IL-8), ColI-induced IL-8 release from moDC, Donor 6” value (“IC50 … Donor 6” for short): 1120 pM for the first, 1280 pM for the second.

B7 and B8 are within 1.5-fold of each other in “IC50 … Donor 6” value: 6560 pM for the first, 8060 pM for the second.

In the case of B9, the “IC50 … Donor 6” value is reported as 210 pM.

Going from B2 to B4, the “IC50 (IL-8), ColI-induced IL-8 release from moDC, Donor 1” value rises from < 100 pM to 230 pM.

With B5 the “IC50 (IL-8), ColI-induced IL-8 release from moDC, Donor 1” value was 490 pM.

B2 and B3 cannot be ordered by “IC50 (IL-8), ColI-induced IL-8 release from moDC, Donor 2” value: < 100 pM for the first, 20 pM for the second.

First: B2
Second: B3
The “IC50 (IL-8), ColI-induced IL-8 release from moDC, Donor 3” value (“IC50 … Donor 3” for short) of the first is 6.4-fold lower: 100 pM for the first, 640 pM for the second.

Compared with B4, B5 is 2.6-fold higher in “IC50 … Donor 3” value: 620 pM for the first, 1590 pM for the second.

In the case of B6, the “IC50 … Donor 3” value is reported as 910 pM.

Molecular target: T1, Human OSCAR-ECD (recombinant …)
Assay: SPR (Biacore T100), mAb coupled or captured on chip, OSCAR-ECD injected, 1:1 fit
Method: The kinetic parameters (kₐ, kd and KD) for the interaction were calculated using a 1:1 interaction Langmuir fitting model.

Compared with B1, B2 is 5.4-fold higher in Kd: 500 pM for the first, 2700 pM for the second.

Going from B3 to B4, the Kd falls from 18000 pM to 4500 pM (4-fold).

First: B5
Second: B6
The Kd of the first is 6.7-fold higher: 18000 pM for the first, 2700 pM for the second.

In the case of B9, the Kd is reported as 300 pM.

Reference: patent publication US20140056918A1 (Novo Nordisk, published 2014)
